From the supplement of paper PMC7877785 come the findings set out here.

This data set is described as follows: self-splicing fitness, log relative to wild type (ln ratio); higher = more splicing; Tetrahymena group I intron in knt gene, E. coli kanamycin selection, DiMSum; sequences stand for … in CUCUCU…GGAGGGAAAAGUUAUCAGGCAUGCACCUGGUAGCUAGUCUUUAAACCAAUAGAUUGCAUCGGUUUAAAAGGCAAGACCGUCAAAUUGCGGGAAAGGGGUCAACAGCCGUUCAGUACCAAGUCUCAGGGGAAACUUUGAGAUGGCCUUGCAAAGGGUAUGGUAAUAAGCUGACGGACAUGGUCCUAACCACGCAGCCAAGUCCUAAGUCAACAGAUCUUCUGUUGAUAUGGAUGCAGUUCACAGACUAAAUGUCGGUCGGGGAAGAUGUAUUCUUCUCAUAAGAUAUAGUCGGACCUCUCCUUAAUGGGAGCUAGCGGAUGAAGUGAUGCAACACUGGAGCCGCUGGGAACUAAUUUGUAUGCGAAAGUAUAUUGAUUAGUUUUGGAGUACUCGUGGUCG
The method, boiled down:
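Fitness was computed with DiMSum as the error-weighted combination of replicate fold changes, kanamycin versus none, each normalised to wild type. The library randomised all eight intron nucleotides of the P1ex region, with the intron placed in the knt kanamycin-resistance gene on pET-22b(+) in E. coli BL21(DE3). Six replicate transformations were grown overnight at 37°C or 30°C on LB agar with or without 25 μg/mL kanamycin, plus 100 μg/mL carbenicillin, 50 μM IPTG and 0.2% rhamnose. Pooled colonies were amplicon-sequenced on an Illumina HiSeq 2500.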

± gives the uncertainty stated by the source.

As to UUUGAGCAAUAUUACGGCCG, for the setting “30 °C”, the “self-splicing fitness (ln)” value is -2.02 ± 0.35.

For UUUGAGCAAUAUUACGGUAA, the “self-splicing fitness (ln)” value was -2.38 ± 0.29 (30 °C) and -1.94 ± 0.25 (37 °C).

Turning to UUUGAGCAAUAUUACGGUUG, the “self-splicing fitness (ln)” value was -1.79 ± 0.2 (30 °C) and -0.702 ± 0.36 (37 °C).

On to UUUGAGCAAUAUUACGUAAC, for which, under “30 °C”, the “self-splicing fitness (ln)” value is -2.01 ± 0.5.

For the sequence UUUGAGCAAUAUUACGUGUC, the “self-splicing fitness (ln)” value runs as follows: (30 °C) -4.05 ± 0.42; (37 °C) -2.79 ± 0.27.

Regarding UUUGAGCAAUAUUACGUGUU, the “self-splicing fitness (ln)” value (30 °C) was -2.61 ± 0.32 and the “self-splicing fitness (ln)” value (37 °C) is -3.3 ± 0.33.

Regarding UUUGAGCAAUAUUACGUUUC, the “self-splicing fitness (ln)” value (37 °C) is -2.62 ± 0.35.

As to UUUUAGCAAUAUUACGAAGU, the “self-splicing fitness (ln)” value (30 °C) was -3.02 ± 0.35 and the “self-splicing fitness (ln)” value (37 °C) is -1.65 ± 0.46.

As for UUUUAGCAAUAUUACGAGAA, the “self-splicing fitness (ln)” value by setting is: (30 °C) -0.897 ± 0.48; (37 °C) -0.946 ± 0.19.

UUUUAGCAAUAUUACGAGCG: the “self-splicing fitness (ln)” value was -1.02 ± 0.11 (30 °C) and -1.33 ± 0.1 (37 °C).

Consider UUUUAGCAAUAUUACGAUGC, for which, for the setting “37 °C”, the “self-splicing fitness (ln)” value was -2.46 ± 0.38.

On to UUUUAGCAAUAUUACGCAGA, for which the “self-splicing fitness (ln)” value by setting is: (30 °C) -0.713 ± 0.21; (37 °C) -0.506 ± 0.16.

Take UUUUAGCAAUAUUACGCGAG: the “self-splicing fitness (ln)” value is, setting by setting: (30 °C) -1.15 ± 0.077; (37 °C) -0.226 ± 0.097.

In the case of UUUUAGCAAUAUUACGCGAU, the “self-splicing fitness (ln)” value was -3.02 ± 0.34 (30 °C) and -1.97 ± 0.27 (37 °C).

As to UUUUAGCAAUAUUACGGAGA, the “self-splicing fitness (ln)” value is, setting by setting: (30 °C) -1.93 ± 0.35; (37 °C) -1.62 ± 0.27.

Consider UUUUAGCAAUAUUACGGAGC, for which the “self-splicing fitness (ln)” value is -2.24 ± 0.38 (30 °C) and -2.37 ± 0.49 (37 °C).

Consider UUUUAGCAAUAUUACGGAGG, for which the “self-splicing fitness (ln)” value runs as follows: (30 °C) -2.86 ± 0.27; (37 °C) -1.48 ± 0.22.

As for UUUUAGCAAUAUUACGGAGU, the “self-splicing fitness (ln)” value is, setting by setting: (30 °C) -2.29 ± 0.33; (37 °C) -1.95 ± 0.28.

In the case of UUUUAGCAAUAUUACGGAUU, the “self-splicing fitness (ln)” value runs as follows: (30 °C) -1.8 ± 0.1; (37 °C) -1.36 ± 0.15.

On to UUUUAGCAAUAUUACGGCAA, for which the “self-splicing fitness (ln)” value is 0.145 ± 0.12 (30 °C) and -0.398 ± 0.15 (37 °C).

As to UUUUAGCAAUAUUACGGCCU, the “self-splicing fitness (ln)” value was -1.53 ± 0.26 (30 °C) and -1.87 ± 0.33 (37 °C).

With UUUUAGCAAUAUUACGGCGU, the “self-splicing fitness (ln)” value reads like this: (30 °C) -1.89 ± 0.21; (37 °C) -0.915 ± 0.45.

As to UUUUAGCAAUAUUACGGGUA, the “self-splicing fitness (ln)” value is, setting by setting: (30 °C) -1.75 ± 0.3; (37 °C) -0.417 ± 0.28.

With UUUUAGCAAUAUUACGGGUC, the “self-splicing fitness (ln)” value was -3.73 ± 0.4 (30 °C) and -2.96 ± 0.38 (37 °C).

For UUUUAGCAAUAUUACGGUCC, the “self-splicing fitness (ln)” value is, setting by setting: (30 °C) -2.8 ± 0.5; (37 °C) -1.73 ± 0.43.

Consider UUUUAGCAAUAUUACGUAUC, for which the “self-splicing fitness (ln)” value (37 °C) is -2.56 ± 0.33.

As for UUUUAGCAAUAUUACGUCAU, the “self-splicing fitness (ln)” value reads like this: (30 °C) -3 ± 0.28; (37 °C) -1.47 ± 0.29.

For the sequence UUUUAGCAAUAUUACGUCUA, the “self-splicing fitness (ln)” value was -0.819 ± 0.23 (30 °C) and -0.292 ± 0.2 (37 °C).
